doi:10.1101/2020.02.20.958934 (bioRxiv, 2020)

Biological target: T1, PEBP1 (UniProt P70296 1-187)
T1 sequence (looked up): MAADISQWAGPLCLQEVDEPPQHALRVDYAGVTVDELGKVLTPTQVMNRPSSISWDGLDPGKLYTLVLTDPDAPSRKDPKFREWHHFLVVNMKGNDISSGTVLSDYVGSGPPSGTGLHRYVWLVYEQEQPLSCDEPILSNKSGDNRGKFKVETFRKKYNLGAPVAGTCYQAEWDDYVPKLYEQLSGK
Assay: ITC

B1: dendritic cell factor 1 (DCF1) (natural protein)
chain: EAFDSVLGDTASCHRACQLTYPLHTYPKEEELYACQRGCRLFSICQFVDDGLDLNRTKLECESACTEAYSQPDEQYACHLGCQDQLPFAELRQEQLMSLMPRMHLLFPLTLVRSFWSDMMDSAQSFITSSWTFYLQADDGKIVIFQSKPEIQYAPQLEQEPTNLRESSLSKMSYLQMRNSQAHRNYLEEEESDGFLRCLSLNSGWILTTTLVLSVMVLLWICCAAVATAVEQYVPPEKLSIYGDLEFMNEQKLSRYPAPSLVIVRSQTEEHEEAGPLPTKVNLAHSEI
Which dH does the source give for B1 here?
The dH was -329 kcal/mol.

What about the “stoichiometry N” value of the same binder?
The value was 0.753 ± 0.0359.
